In the Human Domainome abundance scans (Beltran et al. 2025):
± gives the uncertainty stated by the source.

B1: Chromodomain-helicase-DNA-binding protein 5, residues 338 to 390; numbered along this chain, Q8TDI0 (parent)
chain: YETDHQDYCEVCQQGGEIILCDTCPRAYHLVCLDPELEKAPEGKWSCPHCEKE
B2: SWI/SNF complex subunit SMARCC1, residues 620 to 663; numbered along this chain, Q92922 (parent)
chain: GREWTEQETLLLLEALEMYKDDWNKVSEHVGSRTQDECILHFLR

Variants of: B1
Assay: abundance fitness (aPCA) (normalised: wild type 0, dead -1); higher = more abundant; growth selection in yeast, the domain comes from the species named
Conditions: Homo sapiens

Row | Variant | abundance fitness
1 | D4L | 0.095 ± 0.095
2 | D4E | 0.081 ± 0.11
3 | D4Y | -0.337 ± 0.37
4 | D4N | 0.106 ± 0.13
5 | D7C | -0.669 ± 0.24
6 | D7A | -0.045 ± 0.15
7 | D7K | -0.313 ± 0.15
8 | D7R | -0.154 ± 0.14
9 | D7T | 0.112 ± 0.15
10 | D7I | -0.317 ± 0.28
11 | D7Q | 0.176 ± 0.17
12 | D7L | -0.527 ± 0.21
13 | D7S | -0.257 ± 0.16
14 | D7H | -0.296 ± 0.36
15 | D7Y | -0.676 ± 0.39
16 | D7F | -0.725 ± 0.4
17 | D7M | 0.167 ± 0.21
18 | D7E | -0.255 ± 0.16
19 | D7N | -0.129 ± 0.097
20 | D7W | -0.613 ± 0.18
21 | D7V | 0.096 ± 0.12
22 | D7G | -0.252 ± 0.12
23 | C9Q | -1.04 ± 0.27
24 | C9V | -1.07 ± 0.15
25 | C9E | -0.611 ± 0.15

Row | Variant | abundance fitness
26 | C9L | -0.844 ± 0.13
27 | C9A | -0.726 ± 0.12
28 | C9Y | -0.489 ± 0.12
29 | C9N | -0.764 ± 0.21
30 | C9T | -0.643 ± 0.13
31 | C9D | -0.618 ± 0.21
32 | C9I | -0.774 ± 0.3
33 | C9K | -0.804 ± 0.18
34 | C9G | -0.593 ± 0.095
35 | C9S | -0.809 ± 0.17
36 | C9H | -0.397 ± 0.23
37 | C9F | -1.18 ± 0.22
38 | C9R | -0.752 ± 0.12
39 | C9P | -0.558 ± 0.15
40 | C9M | -0.803 ± 0.16
41 | C9W | -1.08 ± 0.18
42 | E10G | 0.015 ± 0.11
43 | E10A | -0.064 ± 0.1
44 | E10K | 0.2 ± 0.12
45 | E10C | -0.001 ± 0.17
46 | E10H | -0.394 ± 0.2
47 | E10D | -0.14 ± 0.18
48 | E10I | 0.188 ± 0.18
49 | E10F | 0.256 ± 0.17

Variants of: B2
Assay: as above
Conditions: Homo sapiens

Row | Variant | abundance fitness
50 | GREWTEQETLLLLEALEMYKDDWNKVSEHVGSRTQDECILHRLR [F42R] | 0.337 ± 0.083
51 | GREWTEQETLLLLEALEMYKDDWNKVSEHVGSRTQDECILHSLR [F42S] | 0.25 ± 0.092
52 | GREWTEQETLLLLEALEMYKDDWNKVSEHVGSRTQDECILHWLR [F42W] | 0.401 ± 0.089
53 | GREWTEQETLLLLEALEMYKDDWNKVSEHVGSRTQDECILHLLR [F42L] | -0.29 ± 0.073
54 | GREWTEQETLLLLEALEMYKDDWNKVSEHVGSRTQDECILHTLR [F42T] | -0.007 ± 0.26
55 | GREWTEQETLLLLEALEMYKDDWNKVSEHVGSRTQDECILHELR [F42E] | 0.767 ± 0.18
56 | GREWTEQETLLLLEALEMYKDDWNKVSEHVGSRTQDECILHPLR [F42P] | 0.405 ± 0.092
57 | GREWTEQETLLLLEALEMYKDDWNKVSEHVGSRTQDECILHALR [F42A] | 0.053 ± 0.088
58 | GREWTEQETLLLLEALEMYKDDWNKVSEHVGSRTQDECILHNLR [F42N] | 0.429 ± 0.11
59 | GREWTEQETLLLLEALEMYKDDWNKVSEHVGSRTQDECILHCLR [F42C] | -0.286 ± 0.15
60 | GREWTEQETLLLLEALEMYKDDWNKVSEHVGSRTQDECILHMLR [F42M] | -0.2 ± 0.14
61 | GREWTEQETLLLLEALEMYKDDWNKVSEHVGSRTQDECILHYLR [F42Y] | 0.349 ± 0.13
62 | GREWTEQETLLLLEALEMYKDDWNKVSEHVGSRTQDECILHGLR [F42G] | 0.307 ± 0.073
63 | GREWTEQETLLLLEALEMYKDDWNKVSEHVGSRTQDECILHVLR [F42V] | -0.134 ± 0.11
64 | GREWTEQETLLLLEALEMYKDDWNKVSEHVGSRTQDECILHKLR [F42K] | 0.592 ± 0.087
65 | GREWTEQETLLLLEALEMYKDDWNKVSEHVGSRTQDECIYHFLR [L40Y] | 0.213 ± 0.079
66 | GREWTEQETLLLLEALEMYKDDWNKVSEHVGSRTQDECIPHFLR [L40P] | -0.299 ± 0.067
67 | GREWTEQETLLLLEALEMYKDDWNKVSEHVGSRTQDECIHHFLR [L40H] | 0.201 ± 0.061
68 | GREWTEQETLLLLEALEMYKDDWNKVSEHVGSRTQDECIKHFLR [L40K] | 0.171 ± 0.083
69 | GREWTEQETLLLLEALEMYKDDWNKVSEHVGSRTQDECIIHFLR [L40I] | -0.138 ± 0.085
70 | GREWTEQETLLLLEALEMYKDDWNKVSEHVGSRTQDECIWHFLR [L40W] | 0.326 ± 0.14

Row | Variant | abundance fitness
71 | GREWTEQETLLLLEALEMYKDDWNKVSEHVGSRTQDECISHFLR [L40S] | 0.266 ± 0.057
72 | GREWTEQETLLLLEALEMYKDDWNKVSEHVGSRTQDECIQHFLR [L40Q] | 0.204 ± 0.09
73 | GREWTEQETLLLLEALEMYKDDWNKVSEHVGSRTQDECITHFLR [L40T] | 0.206 ± 0.057
74 | GREWTEQETLLLLEALEMYKDDWNKVSEHVGSRTQDECIMHFLR [L40M] | 0.057 ± 0.13
75 | GREWTEQETLLLLEALEMYKDDWNKVSEHVGSRTQDECINHFLR [L40N] | 0.135 ± 0.069
76 | GREWTEQETLLLLEALEMYKDDWNKVSEHVGSRTQDECIRHFLR [L40R] | 0.157 ± 0.062
77 | GREWTEQETLLLLEALEMYKDDWNKVSEHVGSRTQDECILQFLR [H41Q] | -0.21 ± 0.095
78 | GREWTEQETLLLLEALEMYKDDWNKVSEHVGSRTQDECILSFLR [H41S] | -0.357 ± 0.071
79 | GREWTEQETLLLLEALEMYKDDWNKVSEHVGSRTQDECILCFLR [H41C] | -0.089 ± 0.14
80 | GREWTEQETLLLLEALEMYKDDWNKVSEHVGSRTQDECILWFLR [H41W] | -0.142 ± 0.11
81 | GREWTEQETLLLLEALEMYKDDWNKVSEHVGSRTQDECILAFLR [H41A] | 0.064 ± 0.059
82 | GREWTEQETLLLLEALEMYKDDWNKVSEHVGSRTQDECILEFLR [H41E] | -0.178 ± 0.11
83 | GREWTEQETLLLLEALEMYKDDWNKVSEHVGSRTQDECILIFLR [H41I] | -0.537 ± 0.15
84 | GREWTEQETLLLLEALEMYKDDWNKVSEHVGSRTQDECILRFLR [H41R] | -0.019 ± 0.074
85 | GREWTEQETLLLLEALEMYKDDWNKVSEHVGSRTQDECILFFLR [H41F] | -0.189 ± 0.15
86 | GREWTEQETLLLLEALEMYKDDWNKVSEHVGSRTQDECILTFLR [H41T] | -0.161 ± 0.059
87 | GREWTEQETLLLLEALEMYKDDWNKVSEHVGSRTQDECILYFLR [H41Y] | 0.184 ± 0.098
88 | GREWTEQETLLLLEALEMYKDDWNKVSEHVGSRTQDECILLFLR [H41L] | -0.247 ± 0.06
89 | GREWTEQETLLLLEALEMYKDDWNKVSEHVGSRTQDECILMFLR [H41M] | -0.187 ± 0.12
90 | GREWTEQETLLLLEALEMYKDDWNKVSEHVGSRTQDECILNFLR [H41N] | 0.097 ± 0.12
91 | GREWTEQETLLLLEALEMYKDDWNKVSEHVGSRTQDECILKFLR [H41K] | 0.223 ± 0.11

Row | Variant | abundance fitness
92 | GREWTEQETLLLLEALEMYKDDWNKVSEHVGSRTQDECILGFLR [H41G] | -0.407 ± 0.092
93 | GREWTEQETLLLLEALEMYKDDWNKVSEHVGSRTQDECILHFSR [L43S] | 0.338 ± 0.058
94 | GREWTEQETLLLLEALEMYKDDWNKVSEHVGSRTQDECILHFIR [L43I] | 0.098 ± 0.062
95 | GREWTEQETLLLLEALEMYKDDWNKVSEHVGSRTQDECILHFAR [L43A] | 0.286 ± 0.069
96 | GREWTEQETLLLLEALEMYKDDWNKVSEHVGSRTQDECILHFGR [L43G] | 0.342 ± 0.094
97 | GREWTEQETLLLLEALEMYKDDWNKVSEHVGSRTQDECILHFER [L43E] | 0.582 ± 0.07
98 | GREWTEQETLLLLEALEMYKDDWNKVSEHVGSRTQDECILHFFR [L43F] | 0.149 ± 0.07
99 | GREWTEQETLLLLEALEMYKDDWNKVSEHVGSRTQDECILHFQR [L43Q] | 0.645 ± 0.076
100 | GREWTEQETLLLLEALEMYKDDWNKVSEHVGSRTQDECILHFWR [L43W] | 0.076 ± 0.074
101 | GREWTEQETLLLLEALEMYKDDWNKVSEHVGSRTQDECILHFPR [L43P] | 0.302 ± 0.065
102 | GREWTEQETLLLLEALEMYKDDWNKVSEHVGSRTQDECILHFDR [L43D] | 0.587 ± 0.069
103 | GREWTEQETLLLLEALEMYKDDWNKVSEHVGSRTQDECILHFVR [L43V] | 0.209 ± 0.058
104 | GREWTEQETLLLLEALEMYKDDWNKVSEHVGSRTQDECILHFCR [L43C] | 0.187 ± 0.075
105 | GREWTEQETLLLLEALEMYKDDWNKVSEHVGSRTQDECILHFHR [L43H] | 0.514 ± 0.077
106 | GREWTEQETLLLLEALEMYKDDWNKVSEHVGSRTQDECILHFRR [L43R] | 0.507 ± 0.049
107 | GREWTEQETLLLLEALEMYKDDWNKVSEHVGSRTQDECILHFMR [L43M] | 0.184 ± 0.11
108 | GREWTEQETLLLLEALEMYKDDWNKVSEHVGSRTQDECILHFTR [L43T] | 0.584 ± 0.063
109 | GREWTEQETLLLLEALEMYKDDWNKVSEHVGSRTQDECILHFKR [L43K] | 0.554 ± 0.07
110 | GREWTEQETLLLLEALEMYKDDWNKVSEHVGSRTQDECILHFYR [L43Y] | 0.126 ± 0.085
